Results on six molecules are retold here after patent US20230301998A1 (SANFORD BURNHAM PREBYS MEDICAL DISCOVERY INSTITUTE, published 2023).

In test [1] the target is T1, Flag-tagged SHARPIN (human, UniProt Q9H0F6 1-387).
T1 construct: also called Flag-SHARPIN; not shown: FLAG tag
T1 sequence (looked up): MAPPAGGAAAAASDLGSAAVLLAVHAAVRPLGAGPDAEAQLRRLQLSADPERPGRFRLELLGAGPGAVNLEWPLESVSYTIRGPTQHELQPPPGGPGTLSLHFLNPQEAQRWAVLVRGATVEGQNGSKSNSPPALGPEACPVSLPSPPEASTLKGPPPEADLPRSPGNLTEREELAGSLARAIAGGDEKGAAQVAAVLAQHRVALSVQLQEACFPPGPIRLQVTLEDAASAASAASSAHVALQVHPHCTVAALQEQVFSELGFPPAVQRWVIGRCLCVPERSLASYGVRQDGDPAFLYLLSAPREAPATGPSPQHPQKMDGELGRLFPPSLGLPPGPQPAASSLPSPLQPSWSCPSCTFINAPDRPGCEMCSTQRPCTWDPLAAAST
Briefly: Flag IP of Flag-SHARPIN from WM115 lysate, on-bead tryptic digestion, LC/MS-MS. The protocol:
To identify SHARPIN-interacting proteins, WM115 cells were transfected with Flag-tagged SHARPIN or control empty plasmid. Cell lysates were prepared using 1% Triton X-100 buffer [50 mM Tris-HCl, pH7.4, 1% (v/v) Triton X-100, 150 mM NaCl, 1 mM EDTA, and protease and phosphatase inhibitor cocktails (Thermo Fisher Scientific)]. Lysates were pre-cleared with protein A/G beads (Santa Cruz Biotechnology) for 1 h at 4° C. followed by immunoprecipitation using FLAG-M2-agarose beads (Sigma-Aldrich) overnight at 4° C. Beads were then washed with lysis buffer and TBS containing lx protease inhibitor cocktail before being subjected to on-bead tryptic digestion followed by mass spectrometry. In Vitro Methylation Assay.

For test [2], the target named is T2, Interferon-activable protein 204 (Mus musculus) (IFI204) (Mus musculus, UniProt P0DOV2 1-619).
T2 construct: also called IF204
T2 sequence: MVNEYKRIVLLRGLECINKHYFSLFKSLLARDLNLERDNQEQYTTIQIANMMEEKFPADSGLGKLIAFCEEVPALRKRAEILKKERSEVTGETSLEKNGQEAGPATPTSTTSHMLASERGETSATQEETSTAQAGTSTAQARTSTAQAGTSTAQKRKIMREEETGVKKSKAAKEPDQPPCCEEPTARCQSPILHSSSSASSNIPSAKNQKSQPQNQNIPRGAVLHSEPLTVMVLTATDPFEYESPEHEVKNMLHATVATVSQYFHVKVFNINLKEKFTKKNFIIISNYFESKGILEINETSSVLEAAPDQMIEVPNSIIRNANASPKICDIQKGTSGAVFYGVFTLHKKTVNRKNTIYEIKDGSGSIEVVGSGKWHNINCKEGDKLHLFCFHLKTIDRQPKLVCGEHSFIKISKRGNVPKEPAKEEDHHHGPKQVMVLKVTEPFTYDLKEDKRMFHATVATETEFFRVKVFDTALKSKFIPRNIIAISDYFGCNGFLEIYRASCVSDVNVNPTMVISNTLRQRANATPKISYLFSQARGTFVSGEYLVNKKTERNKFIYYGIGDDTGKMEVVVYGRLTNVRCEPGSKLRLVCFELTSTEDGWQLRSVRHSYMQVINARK
Briefly: co-immunoprecipitation and immunoblot, B16 cell lysates (FIG. 8D).

Test [3] deals with T3, Gamma-interferon-inducible protein 16 (IFI16) (human, UniProt Q16666 1-785).
T3 construct: Endogenous protein in WM115 / A375
T3 sequence: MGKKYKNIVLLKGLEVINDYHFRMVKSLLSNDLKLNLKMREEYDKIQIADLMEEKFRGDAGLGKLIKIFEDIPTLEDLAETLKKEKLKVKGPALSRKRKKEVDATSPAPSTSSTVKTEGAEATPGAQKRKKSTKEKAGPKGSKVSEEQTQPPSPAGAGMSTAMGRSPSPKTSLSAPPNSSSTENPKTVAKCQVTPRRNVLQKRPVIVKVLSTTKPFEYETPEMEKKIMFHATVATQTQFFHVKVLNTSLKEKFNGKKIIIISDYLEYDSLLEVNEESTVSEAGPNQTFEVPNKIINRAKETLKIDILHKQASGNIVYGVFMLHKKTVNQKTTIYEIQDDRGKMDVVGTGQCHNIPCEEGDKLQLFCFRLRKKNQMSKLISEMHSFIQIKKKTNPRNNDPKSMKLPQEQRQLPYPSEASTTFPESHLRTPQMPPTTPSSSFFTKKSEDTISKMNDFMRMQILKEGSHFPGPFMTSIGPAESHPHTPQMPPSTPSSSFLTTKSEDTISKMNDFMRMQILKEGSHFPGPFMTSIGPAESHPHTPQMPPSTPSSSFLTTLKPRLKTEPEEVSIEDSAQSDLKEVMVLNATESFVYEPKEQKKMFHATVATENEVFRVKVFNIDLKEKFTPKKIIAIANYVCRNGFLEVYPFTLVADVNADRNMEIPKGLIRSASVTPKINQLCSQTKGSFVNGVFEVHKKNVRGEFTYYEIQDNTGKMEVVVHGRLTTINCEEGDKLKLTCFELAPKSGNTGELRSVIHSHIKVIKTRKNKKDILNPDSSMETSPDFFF
Briefly: co-immunoprecipitation and immunoblot, human melanoma cell lysates (FIGS. 8C, 10C).

B1: GSTP1 (other, human, UniProt P09211 2-210, looked up)
chain: PPYTVVYFPVRGRCAALRMLLADQGQSWKEEVVTVETWQEGSLKASCLYGQLPKFQDGDLTLYQSNTILRHLGRTLGLYGKDQQEAALVDMVNDGVEDLRCKYISLIYTNYEAGKDDYVKALPGQLKPFETLLSQNQGGKTFIVGDQISFADYNLLDLLLIHEVLAPGCLDAFPLLSAYVGRLSARPKLKAFLASPEYVNLPINGNGKQ
notes: endogenous protein co-purified from WM115 lysate
Regarding B1, the binding result in test [1] was “binds”.

B2: SLC25A4 (other, human, UniProt P12235 2-298, looked up)
chain: GDHAWSFLKDFLAGGVAAAVSKTAVAPIERVKLLLQVQHASKQISAEKQYKGIIDCVVRIPKEQGFLSFWRGNLANVIRYFPTQALNFAFKDKYKQLFLGGVDRHKQFWRYFAGNLASGGAAGATSLCFVYPLDFARTRLAADVGKGAAQREFHGLGDCIIKIFKSDGLRGLYQGFNVSVQGIIIYRAAYFGVYDTAKGMLPDPKNVHIFVSWMIAQSVTAVAGLVSYPFDTVRRRMMMQSGRKGADIMYTGTVDCWRKIAKDEGAKAFFKGAWSNVLRGMGGAFVLVLYDEIKKYV
notes: as for B1
With B2, the binding result in test [1] is recorded as “binds”.

B3: MYL12A (other, human, UniProt P19105 1-171, looked up)
chain: MSSKRTKTKTKKRPQRATSNVFAMFDQSQIQEFKEAFNMIDQNRDGFIDKEDLHDMLASLGKNPTDEYLDAMMNEAPGPINFTMFLTMFGEKLNGTDPEDVIRNAFACFDEEATGTIQEDYLRELLTTMGDRFTDEEVDELYREAPIDKKGNFNYIEFTRILKHGAKDKDD
notes: as for B1
B3: the binding result in test [1] is on record as “binds”.

B4: MYL128 (other, human, UniProt O14950 1-172, looked up)
chain: MSSKKAKTKTTKKRPQRATSNVFAMFDQSQIQEFKEAFNMIDQNRDGFIDKEDLHDMLASLGKNPTDAYLDAMMNEAPGPINFTMFLTMFGEKLNGTDPEDVIRNAFACFDEEATGTIQEDYLRELLTTMGDRFTDEEVDELYREAPIDKKGNFNYIEFTRILKHGAKDKDD
notes: endogenous protein co-purified from WM115 lysate; also called MYL12B
Consider B4, for which the binding result in test [1] is listed as “binds”.

B5: SHARPIN (endogenous, murine B16 melanoma cells) (other, mouse, UniProt Q91WA6 1-380, looked up)
chain: MSPPAGGAAVAADPASPVVLLAVHAAVRPLGAGQDAEAQPRKLQLIADPERPGRFRLGLLGTEPGAVSLEWPLEAICYTVRGPNQHELQPPPGGPGTFSVHFLDPEEAQQWAALVRDATAEGQNGSGSPAPAPAPAMCPISPPCSSMAQIPKATQPEVDLPQSSGNFKKEELATRLSQAIAGGDEKAAAQVAAVLAQHHVALNVQLMEAWFPPGPIRLQVTVEDATSVLSSSSSAHVSLKIHPHCSIAALQDQVFSEFGFPPAVQRWVIGRCLCMPERSLASYGVSQDGDPAFLYLLSAPREVSGQSLQNSKMDRKLGLFPQSLGLPHDLQPSSSSLPSPSQPGWSCPSCTFINASNRPGCEMCSTQRPCAWDPLAAAST
Consider B5, for which the binding result in test [2] is “binds”.

B6: SHARPIN (endogenous, human melanoma cells WM115 / A375) (other, UniProt Q9H0F6 1-387, looked up)
chain: T1 sequence (looked up)
As for B6, the binding result in test [3] was “binds”.
